Measured values taken from patent US20250296996A1, “ANGIOPOIETIN-RELATED PROTEIN 7-SPECIFIC ANTIBODIES AND USES THEREOF” (Broadwing Bio, Inc., priority 2022, published 2025).
Entries after “also recorded” stand apart in the source; their conditions may differ.

Test system: 3D human trabecular meshwork (HTM) cells co-cultured with human Schlemms' canal (HSC) cells
Experiment: Outflow facility in bioengineered 3D HTM/HSC ex vivo human eye tissue model, ANGPTL7 or dexamethasone
Format: cell-based
Settings: 3D-HTM donors; 500 nM Dexamethasone or 50 ng/mL ANGPTL7 vs vehicle (DMSO)
Method: Experiments were conducted to determine the effects of ANGPTL7 on outflow facility in a bioengineered ex vivo human eye tissue model. Glauconix developed a proprietary technology allowing multi-layer growth of bioengineered 3D human trabecular meshwork (HTM) cells co-cultured with human Schlemms' canal (HSC) cells, thereby mimicking the architecture of the tissues responsible for pressure build-up in the human eye (FIG. 3A). This allows endpoint analyses relevant to IOP-modulation. This scaffolding of cells is used to compare treatment effects of vehicle (DMSO), dexamethasone (a steroid known to elevate IOP), and human ANGPTL7 protein on outflow facility.
Briefly, HTM cells were thawed and allowed to grow for about 7 days (media changes every 2 days). The HTM cells were seeded onto scaffolds and HSC cells were thawed on the same day; the HTM cells were allowed to grow for 7 days on the scaffolds with media changes every 2 days. HSCs were co-cultured on the back side of the HTM scaffolds and grown for 10-12 days with media changes every 2 days. […]
Samples were analyzed using One-way ANOVA (GraphPad Prism Software, Inc., La Jolla, CA), *P<0.05, **P<0.0.01, ***P<0.001 N=4 per treatment group. […] […]

B1: ANGPTL7: human ANGPTL7 protein (angiopoietin-related protein 7), made by Biortus, used as treatment at 50 ng/mL (protein)
chain: QKLSKHKTPAQPQLKAANCCEEVKELKAQVANLSSLLSELNKKQERDWVSVVMQVMELESNSKRMESRLTDAESKYSEMNNQIDIMQLQAAQTVTQTSADAIYDCSSLYQKNYRISGVYKLPPDDFLGSPELEVFCDMETSGGGWTIIQRRKSGLVSFYRDWKQYKQGFGSIRGDFWLGNEHIHRLSRQPTRLRVEMEDWEGNLRYAEYSHFVLGNELNSYRLFLGNYTGNVGNDALQYHNNTAFSTKDKDNDNCLDKCAQLRKGGYWYNCCTDSNLNGVYYRLGEHNKHLDGITWYGWHGSTYSLKRVEMKIRPEDFKP
outflow facility: reduced outflow facility; also recorded: significantly decreased outflow facility
